Results as given in US8642284B1, “Methods for identifying agents that alter NAD-dependent deacetylation activity of a SIR2 protein” (Massachusetts Institute of Technology, priority 1999, dated 2014).

System: NC(=O)c1ccc[n+]([C@@H]2O[C@H](COP(=O)([O-])OP(=O)(O)OC[C@H]3O[C@@H](n4cnc5c(N)ncnc54)[C@H](O)[C@@H]3O)[C@@H](O)[C@H]2O)c1
Experiment: NAD-dependent deacetylation of di-acetylated H3 peptide by recombinant yeast Sir2p (HPLC)
Format: biochemical
Conditions: other: reaction about 50% of maximal level; pH 9.0
Experimental: The typical reaction of Sir2 deacetylase activity was performed in 50 μl of buffer containing 50 mM Tris-HCl [pH 9.0], 4 mM MgCl2, 0.2 mM DTT, variable concentration of cold nicotinamide adenine dinucleotide (NAD) or NAD derivatives (SIGMA®, MO), 5-10 μg of the purified recombinant Sir2 proteins, and 10 μg of the histone H3 N-terminal tail peptide (amino acid 1-20) di-acetylated at positions 9 and 14 (Upstate Biotechnology™, NY). […] To detect the ADP-ribosylation activity, 8 μCi of NAD 5′-[α-^32P]triphosphate (˜1000 Ci/mmol, Amersham Pharmacia Biotech™, NJ) was added to the same reaction containing 1 μM cold NAD. Histone H3 protein (4 μg) (Roche Molecular Biochemicals™, IN) were used for this assay. All reaction mixtures were incubated at room temperature for 1 hr. Trichostatin A and coumermycin A1 (SIGMA™) were prepared in dimethylsulfoxide (DMSO, SIGMA®), and 5 μl of solvent or inhibitor was added to the reactions prior to adding Sir2 proteins.
After the incubation, the products were precipitated at −20° C. overnight by adding 50 μl of distilled water and 25 μl of 100% trichloroacetic acid (TCA) solution. […] The chromatograms at the absorbance of 210 nm were digitally recorded and analyzed by Hewlett Packard ChemStation™ system (version A.06.03 [509]). […] PTH amino acid chromatograms were recorded and analyzed by the ABI Model 610A2.1 data integration/analysis system. […]

For Sir2p (Saccharomyces cerevisiae S288C), the Km was 100 µM.
